Measured values from PMC11645250.
Read-outs that look alike come from different tables or passages of the source.

Tests used:
[1] = target: IBDV VP3 central domains construct (residues 89–221, D2–D3) (infectious bursal disease virus (IBDV)); assay: cross-linking
[2] = target: IBDV VP3 D1–D2–D3 construct (residues 1–221) (infectious bursal disease virus (IBDV)); assay: cross-linking
[3] = target: IBDV VP3 D1–D2–D3 construct (residues 1–221) (infectious bursal disease virus (IBDV)); assay: SAXS
[4] = target: IBDV VP3 D1–D2–D3 construct (residues 1–221) (infectious bursal disease virus (IBDV)); assay: cross-linking; remark: listed apart in the source
[5] = target: IBDV VP3 D1–D2–D3 construct (residues 1–221) (infectious bursal disease virus (IBDV)); assay: SEC-MALS
[6] = target: IBDV VP3 N-terminal construct (residues 1–81, D1 domain) (infectious bursal disease virus (IBDV)); assay: cross-linking
[7] = target: IBDV VP3 N-terminal construct (residues 1–81, D1 domain) (infectious bursal disease virus (IBDV)); assay: SAXS
[8] = target: IBDV VP3 N-terminal construct (residues 1–81, D1 domain) (infectious bursal disease virus (IBDV)); assay: SEC-MALS
VP3 1-81 (D1) = target: T1, VP3 1-81 (D1) (Infectious bursal disease virus (Soroa …, UniProt Q9WI42 756-836)); assay: EMSA
T1 sequence: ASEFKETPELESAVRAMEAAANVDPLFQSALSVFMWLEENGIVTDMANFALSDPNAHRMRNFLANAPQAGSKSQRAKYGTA

## IBDV VP3 central domains construct (residues 89–221, D2–D3) (domain or fragment)
[1]
  % dimerization/oligomerization after BS3 cross-linking: 43.5%

## IBDV VP3 D1–D2–D3 construct (residues 1–221) (domain or fragment)
[2]
  % of protein in dimers and higher MW species after BS3 cross-linking: 93.2%
[3]
  stoichiometry N: 2
[4]
  % of protein in dimers and higher MW species after BS3 cross-linking: 93.3%
[5]
  % of total sample in the predominant (dimer) peak: 98.8%
  stoichiometry N: 2

## IBDV VP3 N-terminal construct (residues 1–81, D1 domain) (domain or fragment)
[6]
  % of the band in the dimeric form after BS3 cross-linking: 96.9%
[7]
  stoichiometry N: 2
[8]
  stoichiometry N: 2

B1: 28 bp dsRNA (dsRNA)
RNA 1: AGAACCUGUUGAACAAAAGCCGAAUAAU
RNA 2: AUUAUUCGGCUUUUGUUCAACAGGUUCU
VP3 1-81 (D1)
  binding result: no binding
